± gives the standard deviation.
Test: protein stability index of a GFP-peptide fusion (GPS, HEK-293T) (PSI 1-6); higher = more stable
Conditions: c terminus: a fixed tail appended
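Note: 24-mer peptide tiles fused after GFP, lentivirally expressed, FACS-sorted into six equal bins by GFP/DsRed ratio, decoded by Illumina sequencing, PSI is the read-weighted mean bin number.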

Row | Sequence | protein stability index (treatment: DMSO) | protein stability index (treatment: MLN4924 1 uM, 8 h)
1 | FANEEEAKKFRKAVTDLLGRRQRK [WASL] | 3.15 ± 0.24 | 3.52 ± 0.27
2 | DFKSCPQGPQGREGLAFLVSCPEG [PWWP2B] | 3.61 ± 0.15 | 3.75 ± 0.16
3 | HVQNQVDEVIDVMQENITKVIERG [VAMP4] | 3.95 ± 0.2 | 4.13 ± 0.52
4 | GAAVGTGSSYPTTTISYLPHAPPF [JUNB] | 3.1 ± 0.29 | 3.35 ± 0.36
5 | PASFPTWGCDLGVVTRVVTGVYPR [BRF1] | 2.37 ± 0.16 | 2.39 ± 0.3
6 | PEGQKVLFVTFLLIYMVTIMGNLL [OR4A15] | 3.06 ± 0.36 | 3.24 ± 0.5
7 | SVCFIFTITIGMFPAVTVEVKSSI [SLC29A1] | 3.17 ± 0.55 | 3.46 ± 0.34
8 | WGRLTSYSGGGYYLDLPGSRQGSA [PKD2L1] | 2.63 ± 0.18 | 2.69 ± 0.18
9 | MAAKSQPNIPKAKSLDGVTNDRTA [DHCR7] | 5 ± 0.15 | 5.04 ± 0.16
